The source of these data is publication PMC12015307 (Nature Communications, 2025).

The data set “native gel or EMSA” deals with the molecule itself. The experiment in a line: native gel or EMSA.
The next data set concerns the target His-SAMD9 (Homo sapiens, UniProt Q5K651 1-1589). The experiment in a line: EMSA.

B1: His-SAMD9, recombinant full-length human SAMD9 (natural protein)
chain: MAKQLNLPENTDDWTKEDVNQWLESHKIDQKHREILTEQDVNGAVLKWLKKEHLVDMGITHGPAIQIEELFKELRKTAIEDSIQTSKMGKPSKNAPKDQTVSQKERRETSKQKQKGKENPDMANPSAMSTTAKGSKSLKVELIEDKIDYTKERQPSIDLTCVSYPFDEFSNPYRYKLDFSLQPETGPGNLIDPIHEFKAFTNTATATEEDVKMKFSNEVFRFASACMNSRTNGTIHFGVKDKPHGKIVGIKVTNDTKEALINHFNLMINKYFEDHQVQQAKKCIREPRFVEVLLPNSTLSDRFVIEVDIIPQFSECQYDYFQIKMQNYNNKIWEQSKKFSLFVRDGTSSKDITKNKVDFRAFKADFKTLAESRKAAEEKFRAKTNKKEREGPKLVKLLTGNQDLLDNSYYEQYILVTNKCHPDQTKHLDFLKEIKWFAVLEFDPESNINGVVKAYKESRVANLHFPSVYVEQKTTPNETISTLNLYHQPSWIFCNGRLDLDSEKYKPFDPSSWQRERASDVRKLISFLTHEDIMPRGKFLVVFLLLSSVDDPRDPLIETFCAFYQDLKGMENILCICVHPHIFQGWKDLLEARLIKHQDEISSQCISALSLEEINGTILKLKSVTQSSKRLLPSIGLSTVLLKKEEDIMTALEIICENECEGTLLEKDKNKFLEFKASKEEDFYRGGKVSWWNFYFSSESYSSPFVKRDKYERLEAMIQNCADSSKPTSTKIIHLYHHPGCGGTTLAMHILWELRKKFRCAVLKNKTVDFSEIGEQVTSLITYGAMNRQEYVPVLLLVDDFEEQDNVYLLQYSIQTAIAKKYIRYEKPLVIILNCMRSQNPEKSARIPDSIAVIQQLSPKEQRAFELKLKEIKEQHKNFEDFYSFMIMKTNFNKEYIENVVRNILKGQNIFTKEAKLFSFLALLNSYVPDTTISLSQCEKFLGIGNKKAFWGTEKFEDKMGTYSTILIKTEVIECGNYCGVRIIHSLIAEFSLEELKKSYHLNKSQIMLDMLTENLFFDTGMGKSKFLQDMHTLLLTRHRDEHEGETGNWFSPFIEALHKDEGNEAVEAVLLESIHRFNPNAFICQALARHFYIKKKDFGNALNWAKQAKIIEPDNSYISDTLGQVYKSKIRWWIEENGGNGNISVDDLIALLDLAEHASSAFKESQQQSEDREYEVKERLYPKSKRRYDTYNIAGYQGEIEVGLYTIQILQLIPFFDNKNELSKRYMVNFVSGSSDIPGDPNNEYKLALKNYIPYLTKLKFSLKKSFDFFDEYFVLLKPRNNIKQNEEAKTRRKVAGYFKKYVDIFCLLEESQNNTGLGSKFSEPLQVERCRRNLVALKADKFSGLLEYLIKSQEDAISTMKCIVNEYTFLLEQCTVKIQSKEKLNFILANIILSCIQPTSRLVKPVEKLKDQLREVLQPIGLTYQFSEPYFLASLLFWPENQQLDQHSEQMKEYAQALKNSFKGQYKHMHRTKQPIAYFFLGKGKRLERLVHKGKIDQCFKKTPDINSLWQSGDVWKEEKVQELLLRLQGRAENNCLYIEYGINEKITIPITPAFLGQLRSGRSIEKVSFYLGFSIGGPLAYDIEIV
Consider B1, for which, in “native gel or EMSA”, the binding result is given as “binds”.

B2: 20-bp dsDNA (dsDNA)
DNA 1: GATAAGGACTCGTATGTACC
DNA 2: GGTACATACGAGTCCTTATC
As for B2, in the data set with His-SAMD9, the binding result is reported as “no binding”.

B3: 15-bp dsDNA (dsDNA)
DNA 1: GATAAGGACTCGTAT
DNA 2: ATACGAGTCCTTATC
On to B3, for which the binding result with His-SAMD9 is reported as “no binding”.

B4: 80-nt ssDNA (ssDNA)
DNA: CGCCTACATACCTCGCTCTGCTAATCCTGTTACCAGTGGCTGCTGCCAGTGGCGATAAGTCGTGTCTTACCGGGTTGGAC
With B4, the binding result with His-SAMD9 is “no binding”.
